According to paper PMC8053108, “RPA2 winged-helix domain facilitates UNG-mediated removal of uracil from ssDNA; implications for repair of mutagenic uracil at the replication fork” (Nucleic Acids Research, 2021):

Assays:
U10-25* ssDNA substrate = assay: Uracil excision assay, RPA-coated versus naked ssDNA; assay type: biochemical; conditions: 1 μM RPA, 100 nM U10-25* ssDNA; 10 min, 22°C; three independent experiments
Procedure: (§1) 3′-FAM-labelled, PAGE-purified oligonucleotide substrates were from Sigma-Aldrich. Unless otherwise indicated, the substrate (25 nt) harboured uracil at position 10 in a polyC sequence to avoid secondary structures (U10-25*: […]-FAM). Double-stranded substrate was generated by annealing (heating followed by slow cooling) U10-25* to a non-labelled complementary oligo (A16-25: […]). All assays were performed at 22°C in 10 mM Tris–HCl pH 7.5, 50 mM NaCl, 1 mM DTT, 0.1 mM EDTA, 0.5 mg/ml BSA.
(§2) Varying amounts of UNG were then added, and the mixtures incubated for 10 min in a water bath. To avoid unspecific interactions and binding of enzyme and DNA to the assay tube surface, low-DNA binding tubes and excess of BSA was used in all reactions. Reactions were quenched and AP sites cleaved in 10% piperidine at 90°C for 20 min. Samples were dried by vacuum centrifugation and suspended in formamide-containing loading buffer. Product and substrate were separated in 12% PAGE/7M urea–0.5× TBE gels, bands visualised in ChemiDoc™ Imager (Bio-Rad) and quantified by Image Lab software (Bio-Rad). Importantly, all assays in which two parameters were compared (e.g. RPA-coated versus naked substrate or WT versus mutated protein) were performed in parallel with the exact same DNA/protein dilutions.

U10-25* dsDNA substrate = assay: Uracil excision assay, dsDNA preincubated with RPA-WT or RPA-ΔWH; assay type: biochemical; conditions: 100 nM U10-25* dsDNA
Procedure: as §1, §2

B1: UNG-CD: catalytic UNG domain, starting at UNG2 aa 93, lacking the N-terminal RPA-binding helix (protein)
chain: GFGESWKKHLSGEFGKPYFIKLMGFVAEERKHYTVYPPPHQVFTWTQMCDIKDVKVVILGQDPYHGPNQAHGLCFSVQRPVPPPPSLENIYKELSTDIEDFVHPGHGDLSGWAKQGVLLLNAVLTVRAHQANSHKERGWEQFTDAVVSWLNQNSNGLVFLLWGSYAQKKGSAIDRKRHHVLQTAHPSPLSVYRGFFGCRHFSKTNELLQKSGKKPIDWKEL
U10-25* ssDNA substrate
  fold reduced activity with RPA-coated ssDNA compared to naked DNA substrate: 1000 fold
U10-25* dsDNA substrate; 500 nM RPA-WT
  fold increased enzyme concentration to convert similar amounts of substrate in presence of RPA-WT: ~200 fold
U10-25* dsDNA substrate; 500 nM RPA-ΔWH
  fold increased enzyme concentration to convert similar amounts of substrate in presence of RPA-ΔWH: ~50 fold
